Assay results reported in patent US7354734B2, “Fungal proteins and nucleic acids encoding same” (priority 2003, dated 2008).
Entries after “also recorded” stand apart in the source; their conditions may differ. Where two headings read alike, the source gives them in different places.

Legend:
[1] = system: T. rubrum secreted proteolytic activity; experiment: Inhibition of T. rubrum secreted proteolytic activity (resorufin-labeled casein); assay type: biochemical, Trichophyton rubrum; details: T. rubrum culture medium, resorufin-labeled casein as substrate
Experimental: The proteolytic activity was measured using resorufin-labeled casein in phosphate buffer (20 mM; pH 7.4). The reaction mixture contained 0.02% substrate in a total volume of 0.5 ml. After incubation at 37° C., the undigested substrate was precipitated by trichloroacetic add (4% final concentration) and separated from the supernatant by centrifugation. The absorbance at 574 nm of the supernatant was measured after alkalinization by adding 500 μl Tris buffer (500 mM; pH 9.4). For practical purposes, one unit (U) of proteolytic activity was defined as that producing an absorbance of 0.001 per min.
T. rubrum was grown at 30° C. in a medium containing 0.2% soy protein as a sole carbon and nitrogen source. After 14 days of growth, a concomitant clarification of the culture medium was noted and a substantial proteolytic activity (400 U ml^−1) detected using resorufin-labeled casein as substrate. This proteolytic activity was 15% and 85% inhibited by PMSF and ortho-phenanthroline, respectively, attesting that serine and metalloproteases were secreted by T. rubrum. […] In addition, a high activity on substrates such as Leu-AMC and Leu-pNA was detected in the T. rubrum culture supernatant.

[2] = target: T1, pkLAP (microsomal LAP from porcine kidney) (Sus scrofa, UniProt P15145); experiment: Effect of inhibitors and metallic cations on LAP activity (Leu-AMC); assay type: biochemical; details: for effect of inhibitor on pkLAP activity: Leu-AMC 5 mM
T1 construct: purchased Sigma; host or cells: porcine kidney
T1 sequence (P15145 1-963): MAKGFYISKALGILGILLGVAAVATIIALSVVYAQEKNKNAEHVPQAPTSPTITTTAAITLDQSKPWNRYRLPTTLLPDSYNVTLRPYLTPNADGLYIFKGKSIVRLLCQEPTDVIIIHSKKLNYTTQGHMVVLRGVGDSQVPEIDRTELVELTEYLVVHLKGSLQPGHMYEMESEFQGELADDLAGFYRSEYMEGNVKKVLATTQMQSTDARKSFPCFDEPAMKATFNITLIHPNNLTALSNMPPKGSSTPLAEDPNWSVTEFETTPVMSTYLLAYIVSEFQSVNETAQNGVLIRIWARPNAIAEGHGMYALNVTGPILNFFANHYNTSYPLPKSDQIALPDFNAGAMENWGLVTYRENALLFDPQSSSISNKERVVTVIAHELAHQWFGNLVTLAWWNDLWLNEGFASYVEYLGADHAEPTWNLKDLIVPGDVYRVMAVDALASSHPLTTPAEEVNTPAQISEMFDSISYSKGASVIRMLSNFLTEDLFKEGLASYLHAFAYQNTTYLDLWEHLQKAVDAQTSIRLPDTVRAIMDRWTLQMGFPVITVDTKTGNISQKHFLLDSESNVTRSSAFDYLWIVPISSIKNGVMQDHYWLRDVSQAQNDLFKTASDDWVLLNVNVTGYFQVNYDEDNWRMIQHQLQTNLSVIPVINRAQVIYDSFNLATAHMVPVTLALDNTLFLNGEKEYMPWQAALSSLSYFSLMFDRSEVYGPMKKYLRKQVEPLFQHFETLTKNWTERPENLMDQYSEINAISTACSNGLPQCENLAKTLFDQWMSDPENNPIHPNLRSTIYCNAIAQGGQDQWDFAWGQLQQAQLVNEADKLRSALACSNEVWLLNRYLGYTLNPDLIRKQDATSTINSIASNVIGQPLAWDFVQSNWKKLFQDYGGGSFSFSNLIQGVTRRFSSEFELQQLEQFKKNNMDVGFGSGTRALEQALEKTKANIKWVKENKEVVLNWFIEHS

ruLAP1 = ruLAP1 (Trichophyton rubrum, UniProt Q5QHG5); assay type: biochemical
Chain of ruLAP1 (Q5QHG5 21-373): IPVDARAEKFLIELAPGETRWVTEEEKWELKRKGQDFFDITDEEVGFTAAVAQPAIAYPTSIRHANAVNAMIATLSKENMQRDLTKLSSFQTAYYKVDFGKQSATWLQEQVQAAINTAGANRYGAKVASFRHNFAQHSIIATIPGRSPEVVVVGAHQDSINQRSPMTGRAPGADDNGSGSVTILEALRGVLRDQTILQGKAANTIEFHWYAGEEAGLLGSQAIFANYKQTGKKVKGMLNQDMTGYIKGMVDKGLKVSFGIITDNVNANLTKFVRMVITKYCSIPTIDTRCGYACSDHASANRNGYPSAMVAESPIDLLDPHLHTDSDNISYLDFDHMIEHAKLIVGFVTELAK

ruLAP2 = ruLAP2 (Trichophyton rubrum, UniProt Q5QHG6); assay type: biochemical; details: for effect of inhibitor on ruLAP2 activity: Leu-AMC 5 mM
fuLAP2 = assay type: biochemical, Aspergillus fumigatus; details: for effect of inhibitor on fuLAP2 activity: Leu-AMC 5 mM
fuLAP1 = fuLAP1 (Aspergillus fumigatus, UniProt Q5VJG6); experiment: biochemical; assay type: biochemical; details: for effect of inhibitor on fuLAP1 activity: Leu-AMC 5 mM
Chain of fuLAP1 (Q5VJG6 16-388): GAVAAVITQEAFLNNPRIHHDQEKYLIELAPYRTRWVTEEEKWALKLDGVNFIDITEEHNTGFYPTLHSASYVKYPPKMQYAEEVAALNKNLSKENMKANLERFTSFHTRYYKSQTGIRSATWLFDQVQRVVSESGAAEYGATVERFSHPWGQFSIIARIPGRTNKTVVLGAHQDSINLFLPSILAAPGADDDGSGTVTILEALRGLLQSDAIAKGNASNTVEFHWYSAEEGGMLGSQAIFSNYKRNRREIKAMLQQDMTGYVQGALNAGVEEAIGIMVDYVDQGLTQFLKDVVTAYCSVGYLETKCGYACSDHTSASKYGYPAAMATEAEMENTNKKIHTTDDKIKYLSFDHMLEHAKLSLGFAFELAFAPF

[3] = system: gliadin 14mer PQPQLPYPQPQLPY (fragment 82-95 of α/β gliadin AIV); assay type: biochemical, wheat
Gly-Ser-proNPY = experiment: Digestion of Gly-Ser-proNPY; assay type: biochemical; details: overnight 37° C., 1 mM CoCl2, E/S 1:20
From the text: The digested material was isolated by RP-HPLC and characterized by ESI-MS. […] The same result is obtained at an 1:[…] ratio. Digestion halts when the enzyme reaches a Xaa-Pro-motif, which in case of proNPY is Tyr-Pro.

[4] = assay type: biochemical
Ala-proNPY = experiment: Digestion of Ala-proNPY; assay type: biochemical; details: conditions as for Gly-Ser-proNPY
Experimental: The digested material was isolated by RP-HPLC and characterized by ESI-MS. […] The same result is obtained at an 1:[…] ratio. Digestion halts when the enzyme reaches a Xaa-Pro-motif, which in case of proNPY is Tyr-Pro. Conditions of incubation were the same as for Gly-Ser-proNPY.

[5] = assay type: biochemical; details: substrate Lys(Abz)Pro-PropNA 5 mM, 37° C., 60 min
[6] = system: gliadin 33mer (fragment 57-89 of gliadin MM1); experiment: Digestion of gliadin 33mer (RP-HPLC, ESI-MS); assay type: biochemical, wheat; details: 37° C.
[7] = inhibitor 40 μM, Leu-MCA substrate, 15 min pre-incubation

Molecule: O=S(=O)(F)Cc1ccccc1 [PMSF]
- inhibition of proteolytic activity [1]: 15%
- effect of inhibitor on pkLAP activity [2]: no clear inhibitory effects
- pkLAP activity as percentage of control reaction without inhibitor [2, 7]: 58%
- effect of inhibitor on ruLAP1 activity (ruLAP1): no clear inhibitory effects
- ruLAP1 activity as percentage of control reaction without inhibitor (ruLAP1; 40 µM): 78%
- effect of inhibitor on ruLAP2 activity (ruLAP2): no clear inhibitory effects
- ruLAP2 activity as percentage of control reaction without inhibitor (ruLAP2; [7]): 79%
- effect of inhibitor on fuLAP2 activity (fuLAP2): no clear inhibitory effects
- fuLAP2 activity as percentage of control reaction without inhibitor (fuLAP2; [7]): 84%
- effect of inhibitor on fuLAP1 activity (fuLAP1): no clear inhibitory effects
- fuLAP1 activity as percentage of control reaction without inhibitor (fuLAP1; [7]): 156%

Molecule: c1cnc2c(c1)ccc1cccnc12 [ortho-phenantroline, ortho-phenanthroline]
- inhibition of proteolytic activity [1]: 85%
- effect of inhibitor on pkLAP activity [2]: totally inhibited
- effect of inhibitor on ruLAP1 activity (ruLAP1; Leu-AMC 5 mM): totally inhibited
- effect of inhibitor on ruLAP2 activity (ruLAP2): totally inhibited
- effect of inhibitor on fuLAP2 activity (fuLAP2): totally inhibited
- effect of inhibitor on fuLAP1 activity (fuLAP1): totally inhibited

B1: ruLAP2: T. rubrum leucine aminopeptidase, 495 amino acid residues (SEQ ID NO: 3) (protein, listed as Trichophyton rubrum)
chain: MKSQLLSLAVAVTTISQGVVGQEPFGWPFKPMVTQDDLQNKIKLKDIMAGVEKLQSFSDAHPEKNRVFGGNGHKDTVEWIYNEIKATGYYDVKKQEQVHLWSHAEAALNANGKDLKASAMSYSPPASKIMAELVVAKNNGCNATDYPANTQGKIVLVERGVCSFGEKSAQAGDAKAAGAIVYNNVPGSLAGTLGGLDKRHVPTAGLSQEDGKNLATLVASGKIDVTMNVISLFENRTTWNVIAETKGGDHNNVIMLGAHSDSVDAGPGINDNGSGSIGIMTVAKALTNFKLNNAVRFAWWTAEEFGLLGSTFYVNSLDDRELHKVKLYLNFDMIGSPNFANQIYDGDGSAYNMTGPAGSAEIEYLFEKFFDDQGIPHQPTAFTGRSDYSAFIKRNVPAGGLFTGAEVVKTPEQVKLFGGEAGVAYDKNYHRKGDTVANINKGAIFLNTRAIAYAIAEYARSLKGFPTRPKTGKRDVNPQYSKMPGGGCGHHTVFM
- digestion of gliadin 14mer, supplemented with ruDPPIV [3]: complete breakdown
- digestion of gliadin 14mer, enzyme alone ([3]; 4 h, 37° C.): not digested
- N-terminal cleavage of Gly-Ser-proNPY (Gly-Ser-proNPY): cleavage of the two N-terminal residues Gly-Ser
- hydrolytic activity toward Asp-AMC ([4]; compared to Leu-AMC): efficiently cleaved; also recorded: efficiently hydrolyze
- hydrolytic activity toward Glu-AMC ([4]; compared to Leu-AMC): efficiently cleaved; also recorded: efficiently hydrolyze
- hydrolytic activity toward Pro-AMC ([4]; compared to Leu-AMC): more efficiently cleaved
- hydrolytic activity toward Ser-AMC ([4]; compared to Leu-AMC): more efficiently cleaved
- hydrolytic activity toward Ala-AMC in comparison to Leu-MCA used as a standard ([4]; substrate Ala-AMC 5 mM, 37° C., 60 min): 33.3%
- hydrolytic activity toward Arg-AMC in comparison to Leu-MCA used as a standard ([4]; substrate Arg-AMC 5 mM, 37° C., 60 min): 1.9%
- hydrolytic activity toward Asn-AMC in comparison to Leu-MCA used as a standard ([4]; substrate Asn-AMC 5 mM, 37° C., 60 min): 114.6%
- hydrolytic activity toward Asp-AMC in comparison to Leu-MCA used as a standard ([4]; substrate Asp-AMC 5 mM, 37° C., 60 min): 3.8%
- hydrolytic activity toward Cys-AMC in comparison to Leu-MCA used as a standard ([4]; substrate Cys-AMC 5 mM, 37° C., 60 min): 14.9%
- hydrolytic activity toward Gln-AMC in comparison to Leu-MCA used as a standard ([4]; substrate Gln-AMC 5 mM, 37° C., 60 min): 49.9%
- hydrolytic activity toward Glu-AMC in comparison to Leu-MCA used as a standard ([4]; substrate Glu-AMC 5 mM, 37° C., 60 min): 3.7%
- hydrolytic activity toward Gly-AMC in comparison to Leu-MCA used as a standard ([4]; substrate Gly-AMC 5 mM, 37° C., 60 min): 3.3%
- hydrolytic activity toward Gly-Pro-AMC in comparison to Leu-MCA used as a standard ([4]; substrate Gly-Pro-AMC 5 mM, 37° C., 60 min): 7.2%
- hydrolytic activity toward His-AMC in comparison to Leu-MCA used as a standard ([4]; substrate His-AMC 5 mM, 37° C., 60 min): 0.6%
- hydrolytic activity toward Hyp-AMC in comparison to Leu-MCA used as a standard ([4]; substrate Hyp-AMC 5 mM, 37° C., 60 min): 14.2%
- hydrolytic activity toward Ile-AMC in comparison to Leu-MCA used as a standard ([4]; substrate Ile-AMC 5 mM, 37° C., 60 min): 6.4%
- hydrolysis of Leu-AMC ([4]; substrate Leu-AMC): efficiently hydrolyzed; also recorded: common preference
- hydrolytic activity toward Leu-AMC in comparison to Leu-MCA used as a standard ([4]; substrate Leu-AMC 5 mM, 37° C., 60 min): 100.0%
- hydrolytic activity toward Lys-AMC in comparison to Leu-MCA used as a standard ([4]; substrate Lys-AMC 5 mM, 37° C., 60 min): 4.6%
- hydrolytic activity toward Met-AMC in comparison to Leu-MCA used as a standard ([4]; substrate Met-AMC 5 mM, 37° C., 60 min): 119.7%
- hydrolytic activity toward Phe-AMC in comparison to Leu-MCA used as a standard ([4]; substrate Phe-AMC 5 mM, 37° C., 60 min): 17.1%
- hydrolytic activity toward Pro-AMC in comparison to Leu-MCA used as a standard ([4]; substrate Pro-AMC 5 mM, 37° C., 60 min): 21.4%
- hydrolytic activity toward Pyr-AMC in comparison to Leu-MCA used as a standard ([4]; substrate Pyr-AMC 5 mM, 37° C., 60 min): 0.0%
- hydrolytic activity toward Ser-AMC in comparison to Leu-MCA used as a standard ([4]; substrate Ser-AMC 5 mM, 37° C., 60 min): 26.1%
- hydrolytic activity toward Thr-AMC in comparison to Leu-MCA used as a standard ([4]; substrate Thr-AMC 5 mM, 37° C., 60 min): 0.9%
- hydrolytic activity toward Val-AMC in comparison to Leu-MCA used as a standard ([4]; substrate Val-AMC 5 mM, 37° C., 60 min): 4.8%
- removal of N-terminal alanine from Ala-proNPY (Ala-proNPY): almost totally removed
- hydrolytic activity toward Lys(Abz)Pro-PropNA in comparison to Leu-MCA used as a standard [5]: 0.0%
- digestion of gliadin 33mer, mixed with ruDPPIV ([6]; enzyme plus ruDPPIV (DPPIV)): totally digested; also recorded: same HPLC pattern
- degradation of gliadin 33mer, enzyme alone ([6]; within 4 h): less than 50%
- digestion of denatured casein (denatured casein): sequentially digest
